For assay [1], the target named is T1, Unprocessed hMPV PreF trimer (human metapneumovirus, strain B2).
T1 construct: also called Unprocessed hMPV WT PreF trimer; unprocessed hMPV PreF trimeric antigen
As to the kind of experiment: BLI, mAb on anti-human Fc sensor.

Assay [2] addresses T2, Processed stabilized hMPV PreF trimer (115BV) (human metapneumovirus, strain B2).
T2 construct: also called Processed hMPV PreF trimer; processed PreF
Kind of assay: BLI, mAb on anti-human Fc sensor. A general note: In BLI a coated tip is dipped into the sample, and binding shifts an interference pattern.

The target of the next assay is T3, hMPV PostF trimer (human metapneumovirus, strain B2).
T3 construct: also called MPV PostF (dPFv1)
As to the kind of experiment: BLI, mAb on anti-human Fc sensor.

Assay [3] has as its target T2, Processed stabilized hMPV PreF trimer …. As to the kind of experiment: BLI, ratio to unprocessed PreF trimer.

The values below come from patent US20240327502A1 (Merck Sharp & Dohme, published 2024).

B1: M2A02 (antibody, V domains shown)
VH: QVQLVQSGAEVKRPGSSVKVSCKASGDIFSSHAISWVRQTPGQGLKWMGRIIPLVGIRNYAQDLQGRVTISADKSINTVYMELTNLRFDDTAVYYCARDRTDWSGGLDIWGQGTRVTVSS
VL: EIVLTQSPATLSLSPGERATLSCRASQRIGSYLAWYQQKPGQAPRLLIYDASNRATGIPARFSGSGSGTDFTLTISRLEPEDSAIYYCQQRTDWFTFGGGTKVEIK
notes: IgG
As to B1, the Octet binding response in assay [1] is 0.261 nm; in assay [2], 0.0795 nm; with hMPV PostF trimer, -0.0402 nm. In assay [3], the “processed/unprocessed PreF trimer binding ratio” value was determined as 0.3.

B2: M4C03 (antibody, V domains shown)
VH: EVQLVESGGTLVQPGGSLRLSCAASGFRFNAFSMNWVRQAPGKGLEWVSYIDSRSNIIYYADSVKGRFTISRDNAKTSLYLRMSSLRDEDTAVYYCAKALCVVNYDFWSGLLGCAMDVWGQGTTVTVSS
VL: QSVLTQPPSVSGAPGQRVTISCTGTTSNIGAGFDVHWYQQVPGTAPKLLIYANTDRPSGVPDRFSASKSGTSASLAITGLQVEDEAHYYCQTYDTTLSGSTVFGGGTKLTVL
notes: IgG
As to B2, the figures for the Octet binding response (in assay [1]; in assay [2]; with hMPV PostF trimer) were 0.263 nm, 0.0323 nm and 0.506 nm, respectively. Also, the “processed/unprocessed PreF trimer binding ratio” value in assay [3] turned out to be 0.12.

B3: M4C08 (antibody, V domains shown)
VH: EVQLVESGGTLVQPGGSLRLSCAASGFKFNAFSMNWVRQAPGKGLEWVSYIDSRSNIIYYADSVKGRFTISRDNAKNSLYLRMSSLRDEDTAVYYCAKALCVVNYDFWSGLLGCAMDVWGQGTTVTVSS
VL: QSVLTQPPSVSGAPGQRVTISCTGNTSNIGAGFDVHWYQQVPGTAPKLLIYANTDRPSGVPDRFSASKSGTSASLAITGLQAEDEADYYCQTYDRSLSGSTVFGGGTKLTVL
notes: IgG
With B3, the figures for the Octet binding response (in assay [1]; in assay [2]; with hMPV PostF trimer) were 0.222 nm, 0.0268 nm and 0.467 nm, respectively. Moreover, the “processed/unprocessed PreF trimer binding ratio” value in assay [3] is 0.12.

B4: M2B01 (antibody, V domains shown)
VH: QVQLVESGGGVVQPGKSLRLSCAASGFTFSSHAMDWVRQVPGKGLEWVAVISYDGSNRYYADSVKGRFTISRDTSKNTLYLQMNSLRPEDTAVYYCARDFQPSPMVYGVGYFDYWGQGTLVTVSP
VL: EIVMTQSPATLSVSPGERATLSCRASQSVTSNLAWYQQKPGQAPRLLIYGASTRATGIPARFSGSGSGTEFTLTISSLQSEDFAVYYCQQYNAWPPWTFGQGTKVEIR
notes: IgG
As for B4, the Octet binding response stood at 0.315 nm in assay [1], 0.0607 nm in assay [2] and 0.465 nm with hMPV PostF trimer. The “processed/unprocessed PreF trimer binding ratio” value in assay [3] was found to be 0.19.

B5: M2D2 (antibody, V domains shown)
VH: QVQLVQSGAEVKKPGASVKVSCKASGYNFDNYYMSWVRQAPGQGLEWLGIIDPSGGRISYAPKFQGRVTLTRDTSTSTVYMELRGLRFEDTALYYCARLEATHEGPWGQGTLVTVSS
VL: QSVLTQPPSASGTPGQRVTISCSGSNSNIGSSTVNWYQQLPGTAPKLLIYSDNHRPSGVPDRFSGSRSGTSASLVISGLHSEDEADYYCGTWDDGLNGPYVFGTGTKVTVL
notes: IgG
B5: the Octet binding response in assay [1] came to 0.362 nm; in assay [2] it was 0.351 nm; with hMPV PostF trimer it was 0.454 nm. In assay [3], the “processed/unprocessed PreF trimer binding ratio” value was determined as 0.97.

B6: M2D01 (antibody, V domains shown)
VH: QVQLQESGPGVVKPSETLSLTCTVSRGAITDYHLNWIRQPPGKGLEWIGYISSSGSTNYNPSLKSRVTISQVMSGTQFSLKLTSMSAADTALYYCASSSGRYWGGALDLWGQGTQVIVSS
VL: DIVMTQSPDSLAVPLGERATINCKSSQSLLYTSNNKNSLAWYQQKPGQPPKLLLFWASTREFRVPDRFSGSGSGTDFTLTISSLQAEDVAVYYCQQYYTAPYTFGPGTKLEIK
notes: IgG
In the case of B6, the Octet binding response in assay [1] stood at 0.33 nm; in assay [2], 0.0622 nm; with hMPV PostF trimer it was 0.493 nm. Moreover, in assay [3], the “processed/unprocessed PreF trimer binding ratio” value is 0.19.

B7: M1A04 (antibody, V domains shown)
VH: EVQLVESGGGLVRPGGSLRLSCAASGFNVRNYYMSWVRQAPGKGLEWISVIYGGGTTFYAGSVKGRFTISRDDSKSTLFLQMNSLRADDTAVYYCARDPGTVMSTENLQGMDVWGQGTTVTVSS
VL: DIQMTQSPSSLSASVGDRVTITCRASQTIRSYLNWYQQKPGKAPNLLIYAATSLQSGVPSRFSGSGSGTDFTLTISSLQPEDSATYYCQQSFSTLYSFGQGTRLEIK
notes: IgG
Regarding B7, the Octet binding response in assay [1] came to 0.453 nm; in assay [2], 0.557 nm; in the assay with hMPV PostF trimer it was 0.618 nm. For the same molecule, in assay [3], the “processed/unprocessed PreF trimer binding ratio” value was determined as 1.23.

B8: M2A06 (antibody, V domains shown)
VH: QVQLVQSGAEVKKPGASVKISCKASGYSFSNYYIQWVRQAPGQGLEWLGIINPSGGSTDYAQKFEGRVSMTRDTSTNTVYMEMSSLRSEDTASYYCVRSLANGSGSPWGQGTLVIVSS
VL: DIQMTQSPSTLSASVGDRVTITCRASQSISSRLAWYQQKPGKAPNLLLYDASRSESGVPSRFSGSGSGTEFTLTISSLQPDDVATYYCQHYSIYSRWTFGQGTKVEIK
notes: IgG
With B8, the values for the Octet binding response (in assay [1]; in assay [2]; in the assay with hMPV PostF trimer) were 0.237 nm, 0.052 nm and -0.0352 nm, respectively. For the same molecule, in assay [3], the “processed/unprocessed PreF trimer binding ratio” value stood at 0.22.

B9: M2B12 (antibody, V domains shown)
VH: QVQLVESGGGVVQPGRSLRLSCEASGFTFSSSAMHWVRQAPGKGLEWVAIISYHGTNKDYSDSVRGRFTISRDNSKNTLYLQMNGLRGDDTAVYYCAKEAAVSGNFDSWGQGTMVTVSS
VL: QLVLTQSPSASASLGASVKLTCTLISGPSNYAIAWHRQQPQKGPRYLMKVNSDGSHTKGDGIPDRFSGSSSGTERYLIISNLQSEDEADYYCQTWGSGIYVFGPGTKVTVL
notes: IgG
Regarding B9, the Octet binding response came to 0.378 nm in assay [1], 0.438 nm in assay [2] and 0.445 nm with hMPV PostF trimer. Also, the “processed/unprocessed PreF trimer binding ratio” value in assay [3] was found to be 1.16.

B10: M4C04 (antibody, V domains shown)
VH: RVTLRESGPALLKPTQTLTLTCTFSGFSLNTYGMSVNWIRQPPGKALEWLSRIDWDGDKYFNTSLKTRLTISKDTSKNQVVLTMTNMEPVDTATYYCAQSVIVPAQSFVSWFDPWGPGTLVTVSS
VL: EIVMTQSPATLSVSPGERATLSCRASQSVRSNLAWYQQKPGQAPRLLIYGASSRATGIPARFSGSGSGTEFTLTISSLQSEDLAIYYCQQYNNWPPGAFGQGTKVEIK
notes: IgG
Consider B10, for which the Octet binding response in assay [1] is 0.342 nm; in assay [2], 0.303 nm; with hMPV PostF trimer it was 0.442 nm. In assay [3], the “processed/unprocessed PreF trimer binding ratio” value came to 0.89.

B11: M2A11 (antibody, V domains shown)
VH: QVQLQESGPGLVKPSETLSLTCTVSGGSITSHYWSWVRQPPGKGLEWIAYIYYSGSTDYNPSLKSRVTISLDTSKNQVSLRLNSVTTADTAVYFCARCMPLYHVMHVWGHGTTVTVSS
VL: QSVLTQPPSVSGAPGQRVTISCTGSSSDIGAGSDVHWYQQLPGTAPKLLIYGNTNRPSGVPDRFSGSKSGTSASLAITGLQAEDEADYYCQSYDSGLSGYVFGGGTKLTVL
notes: IgG
Take B11: the Octet binding response in assay [1] was 0.285 nm; in assay [2], 0.0658 nm; with hMPV PostF trimer it was 0.293 nm. Moreover, in assay [3], the “processed/unprocessed PreF trimer binding ratio” value was found to be 0.23.

B12: M2A05 (antibody, V domains shown)
VH: QITLKESGPTLVKPTQTLTLTCTVSGFSLSANSVGVAWFRQPPGKAPEWLGVIYWDDDKRFSPSLKTRLSITKDASTSQVVLRLTNVSPLDTATYYCVRKHYDLLQWGQGAPVTVSS
VL: EIVLTQSPGTLSLSPGEGATLSCRASRSVNSDYIAWYQHKPGLAPRLLIYAASTRATDIPDRFRADVSGTDFTLTIDRLEPDDFAVYYCQQYGSAVWTFGQGTRVEVK
notes: IgG
As to B12, the Octet binding response in assay [1] is 0.378 nm; in assay [2], 0.447 nm; with hMPV PostF trimer, 0.449 nm. The “processed/unprocessed PreF trimer binding ratio” value in assay [3] was found to be 1.18.
